In series [1] the target is BSA (Bovine Serum Albumin) (UniProt P02769).
The subject of series [2] is T1, cdc2-PK (cdc2 Protein Kinase) matrix PKTPKKAKKL
T1 sequence: PKTPKKAKKL

Series [3] relates to recombinant Mep45-kinase matrix fusion protein (cdc2-PK matrix).
Series [4] relates to T2, PKC (Protein Kinase C) matrix AAKIQASFRGHMARKK
T2 sequence: AAKIQASFRGHMARKK

Series [5] relates to recombinant Mep45-kinase matrix fusion protein (PKC matrix).

BSA (Bovine Serum Albumin), sequence (P02769 25-607): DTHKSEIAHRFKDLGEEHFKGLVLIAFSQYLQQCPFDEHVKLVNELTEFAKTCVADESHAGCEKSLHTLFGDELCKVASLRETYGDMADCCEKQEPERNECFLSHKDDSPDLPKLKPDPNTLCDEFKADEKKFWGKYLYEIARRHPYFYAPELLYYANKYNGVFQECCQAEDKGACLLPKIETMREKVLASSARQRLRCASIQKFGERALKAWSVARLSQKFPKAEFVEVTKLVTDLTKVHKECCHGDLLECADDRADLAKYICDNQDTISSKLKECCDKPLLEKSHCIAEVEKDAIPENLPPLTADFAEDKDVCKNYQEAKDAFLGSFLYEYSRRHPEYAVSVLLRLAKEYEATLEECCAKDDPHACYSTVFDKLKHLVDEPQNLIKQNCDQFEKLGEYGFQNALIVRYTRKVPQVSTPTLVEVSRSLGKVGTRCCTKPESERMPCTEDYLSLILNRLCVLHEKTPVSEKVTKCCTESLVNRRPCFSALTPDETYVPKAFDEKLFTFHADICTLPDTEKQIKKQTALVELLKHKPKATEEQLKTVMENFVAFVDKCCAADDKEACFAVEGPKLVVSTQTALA

In the case of cdc2 protein kinase, the “phosphorylation on chip with [gamma-32P]ATP, X-ray film or X-ray fluorescence spectrometer” value was “no signal was detected on the spot of BSA (negative control)” in series [1], “clear signal was detected on the spot of PKTPKKAKKL matrix (FIG. 4A)” in series [2] and “clear signal was detected on the spot of ... Mep45 fusion matrix (FIG. 4B)” in series [3].

Turning to PKC (Protein Kinase C), the “phosphorylation on chip with [gamma-32P]ATP, X-ray film or X-ray fluorescence spectrometer” value is on record as “no signal was detected on the spot of BSA (negative control)” in series [1], “clear signal was detected on the spot of AAKIQASFRGHMARKK matrix (FIG. 5A)” in series [4] and “clear signal was detected on the spot of ... Mep45 fusion matrix (FIG. 5B)” in series [5].

The values are drawn from patent US20090317849.
